One substance from US20250002585A1 can be followed below.

The target of this experiment is human PD-L1 on PD-L1 aAPC/CHO-K1 cells (human) (UniProt Q9NZQ7).
human PD-L1 on PD-L1 aAPC/CHO-K1 cells (human), sequence (Q9NZQ7 19-290): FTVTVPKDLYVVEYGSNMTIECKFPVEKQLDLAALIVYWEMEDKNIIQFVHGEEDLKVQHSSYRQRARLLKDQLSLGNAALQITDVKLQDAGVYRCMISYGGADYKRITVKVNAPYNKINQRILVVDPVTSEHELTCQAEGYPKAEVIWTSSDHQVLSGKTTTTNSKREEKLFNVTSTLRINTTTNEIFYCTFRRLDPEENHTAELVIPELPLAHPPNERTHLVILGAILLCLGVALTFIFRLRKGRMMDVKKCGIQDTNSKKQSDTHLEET

Turning to Atezolizumab (antibody), the EC50 (read off the curve), fold induction, PD1/PD-L1 blockade cell bioassay is 0.5 nM.
